The source of these data is the supplement of paper PMC10567573.

To fix the notation:
B1: SLC25A39 (parent)
chain: LTSDLYAPMVAGALARLGTVTVIS
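Also: lentivirally expressed fusions sorted by FACS into six bins by GFP to DsRed ratio, PSI derived from sequencing read proportions per bin multiplied by bin number.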

This series covers variants of B1. The experiment in a line: protein stability index of a GFP-peptide fusion (GPS, HEK-293T) (PSI 1-6); higher = more stable. The note with it: c terminus: a fixed tail appended.
As for LTSDLYAPMVAGALARLGTVRVIS [T21R], the protein stability index was 2.12.

For the variant LTSDLYAPMVAGALARLGTVMVIS [T21M], the protein stability index worked out at 2.7.

Take LTSDLYAPMVAGALARLGTVHVIS [T21H]: the protein stability index amounted to 2.26.

For LTSDLYAPMVAGALARLGTVFVIS [T21F], the protein stability index amounted to 3.5.

Regarding LTSDLYAPMVAGALARLGTVQVIS [T21Q], the protein stability index came to 2.95.

LTSDLYAPMVAGALARLGTVEVIS [T21E]: the protein stability index stood at 2.09.

For the variant LTSDLYAPMVAGALARLGTVNVIS [T21N], the protein stability index stood at 2.79.

Regarding LTSDLYAPMVAGALARLGTVDVIS [T21D], the protein stability index is 3.1.

LTSDLYAPMVAGALARLHTVTVIS [G18H]: the protein stability index amounted to 4.48.

Turning to LTSDLYAPMVAGALARLATVTVIS [G18A], the protein stability index was 2.61.

With LTSDLYAPMVAGALARLTTVTVIS [G18T], the protein stability index was determined as 3.39.

As for LTSDLYAPMVAGALARLDTVTVIS [G18D], the protein stability index was 2.53.

In the case of LTSDLYAPMVAGALARLKTVTVIS [G18K], the protein stability index came to 2.53.

For LTSDLYAPMVAGALARLPTVTVIS [G18P], the protein stability index is 2.57.

On to LTSDLYAPMVAGALARLWTVTVIS [G18W], for which the protein stability index amounted to 3.57.

With LTSDLYAPMVAGALARLRTVTVIS [G18R], the protein stability index turned out to be 2.66.

On to LTSDLYAPMVAGALAPLGTVTVIS [R16P], for which the protein stability index was 1.98.

Take LTSDLYAPMVAGALAWLGTVTVIS [R16W]: the protein stability index came to 2.85.

On to LTSDLYAPMVAGALADLGTVTVIS [R16D], for which the protein stability index came out at 2.58.

On to LTSDLYAPMVAGALAELGTVTVIS [R16E], for which the protein stability index was 1.76.

Turning to LTSDLYAPMVAGALAFLGTVTVIS [R16F], the protein stability index worked out at 4.13.

Take LTSDLYAPMVAGALANLGTVTVIS [R16N]: the protein stability index is 1.5.

LTSDLYAPMVAGALAQLGTVTVIS [R16Q]: the protein stability index worked out at 3.11.

In the case of LTSDLYAPMVAGALALLGTVTVIS [R16L], the protein stability index stood at 2.76.

LTSDLYAPMVAGALASLGTVTVIS [R16S]: the protein stability index came to 2.41.

Regarding LTSDLYAPMVAGALAILGTVTVIS [R16I], the protein stability index is 2.97.

LTSDLYAPMVAGALAYLGTVTVIS [R16Y]: the protein stability index was determined as 2.35.

On to LTSDLYAPMVAGALAALGTVTVIS [R16A], for which the protein stability index was found to be 2.1.

Consider LTSDLYAPMVAGALAMLGTVTVIS [R16M], for which the protein stability index worked out at 3.22.

Consider LTSDLYAPMKAGALARLGTVTVIS [V10K], for which the protein stability index turned out to be 2.15.

As to LTSDLYAPMAAGALARLGTVTVIS [V10A], the protein stability index came to 3.92.

For the variant LTSDLYAPMPAGALARLGTVTVIS [V10P], the protein stability index was determined as 1.85.

Turning to LTSDLYAPMMAGALARLGTVTVIS [V10M], the protein stability index worked out at 4.25.

For the variant LTSDLYAPMNAGALARLGTVTVIS [V10N], the protein stability index is 1.96.

For LTSDLYAPMGAGALARLGTVTVIS [V10G], the protein stability index was found to be 2.72.

Consider LTSDLYAPMQAGALARLGTVTVIS [V10Q], for which the protein stability index is 1.96.

Regarding LTSDLYAPMTAGALARLGTVTVIS [V10T], the protein stability index turned out to be 3.25.

As for LTSDLYAPMHAGALARLGTVTVIS [V10H], the protein stability index turned out to be 2.45.

Take LTSDLYAPMWAGALARLGTVTVIS [V10W]: the protein stability index worked out at 2.29.

As to LTSDLYAPMYAGALARLGTVTVIS [V10Y], the protein stability index came out at 2.63.

On to LTSDLYAPMEAGALARLGTVTVIS [V10E], for which the protein stability index was found to be 1.21.

LTSDLYAPMDAGALARLGTVTVIS [V10D]: the protein stability index was 1.9.

Turning to LTSDLYAPMCAGALARLGTVTVIS [V10C], the protein stability index is 3.02.

LTSDLYAPMRAGALARLGTVTVIS [V10R]: the protein stability index amounted to 1.49.

With LTSDLYAPMFAGALARLGTVTVIS [V10F], the protein stability index was 2.85.

With LTSDLYAPMSAGALARLGTVTVIS [V10S], the protein stability index stood at 2.6.

As to LTSDLYAPMVAGALARLGTDTVIS [V20D], the protein stability index is 2.73.

As for LTSDLYAPMVAGALARLGTNTVIS [V20N], the protein stability index was 2.54.

LTSDLYAPMVAGALARLGTRTVIS [V20R]: the protein stability index is 1.76.

For the variant LTSDLYAPMVAGALARLGTITVIS [V20I], the protein stability index stood at 3.37.

Turning to LTSDLYAPMVAGALARLGTHTVIS [V20H], the protein stability index came to 3.15.

For LTSDLYAPMVAGALARLGTGTVIS [V20G], the protein stability index was found to be 1.99.

Consider LTSDLYAPMVAGALARLGTFTVIS [V20F], for which the protein stability index turned out to be 2.09.

With LTSDLYAPMVAGALARLGTYTVIS [V20Y], the protein stability index worked out at 3.19.

As to LTSDLYAPMVAGALARLGTPTVIS [V20P], the protein stability index was determined as 1.45.

For LTSDLYAPMVAGALARLGTWTVIS [V20W], the protein stability index was 1.77.

In the case of LTSDLYAPMVAGALARLGTETVIS [V20E], the protein stability index came to 2.43.

LTSDLYAPMVAGALARLGTTTVIS [V20T]: the protein stability index came out at 1.02.

As for LTSDLYAPMVAGALARLGTSTVIS [V20S], the protein stability index stood at 2.26.

With LTSDLYAPMVAGALARLGTKTVIS [V20K], the protein stability index came out at 2.05.

Take LTSDLYSPMVAGALARLGTVTVIS [A7S]: the protein stability index amounted to 2.38.

Consider LTSDLYRPMVAGALARLGTVTVIS [A7R], for which the protein stability index is 3.29.

As for LTSDLYLPMVAGALARLGTVTVIS [A7L], the protein stability index was 3.74.

On to LTSDLYQPMVAGALARLGTVTVIS [A7Q], for which the protein stability index came out at 2.86.

With LTSDLYTPMVAGALARLGTVTVIS [A7T], the protein stability index was found to be 1.62.

LTSDLYHPMVAGALARLGTVTVIS [A7H]: the protein stability index worked out at 2.38.

Turning to LTSDLYCPMVAGALARLGTVTVIS [A7C], the protein stability index worked out at 2.42.

Turning to LTSDLYPPMVAGALARLGTVTVIS [A7P], the protein stability index was determined as 1.87.

For LTSDLYVPMVAGALARLGTVTVIS [A7V], the protein stability index stood at 1.96.

LTSDLYNPMVAGALARLGTVTVIS [A7N]: the protein stability index was determined as 1.97.

In the case of LTSDLYKPMVAGALARLGTVTVIS [A7K], the protein stability index came to 1.61.

For the variant LTSDLYDPMVAGALARLGTVTVIS [A7D], the protein stability index worked out at 1.17.

For the variant LTSDLYIPMVAGALARLGTVTVIS [A7I], the protein stability index is 4.33.

In the case of LTSDLYAPMVAIALARLGTVTVIS [G12I], the protein stability index is 3.04.

Regarding LTSDLYAPMVALALARLGTVTVIS [G12L], the protein stability index came to 3.83.

For LTSDLYAPMVAKALARLGTVTVIS [G12K], the protein stability index was found to be 3.64.

As to LTSDLYAPMVAHALARLGTVTVIS [G12H], the protein stability index stood at 2.64.

Regarding LTSDLYAPMVAPALARLGTVTVIS [G12P], the protein stability index came to 1.23.

LTSDLYAPMVAQALARLGTVTVIS [G12Q]: the protein stability index was 4.46.

As for LTSDLYAPMVASALARLGTVTVIS [G12S], the protein stability index was found to be 1.53.

With LTSDLYAPMVAYALARLGTVTVIS [G12Y], the protein stability index came out at 2.21.

As for LTSDLYAPMVARALARLGTVTVIS [G12R], the protein stability index is 3.52.

With LTSDLYAPMVAVALARLGTVTVIS [G12V], the protein stability index turned out to be 3.9.

As to LTSDLYAPMVAGALARLGGVTVIS [T19G], the protein stability index was determined as 1.91.

On to LTSDLYAPMVAGALARLGVVTVIS [T19V], for which the protein stability index turned out to be 2.87.

Take LTSDLYAPMVAGALARLGDVTVIS [T19D]: the protein stability index came out at 1.76.

Take LTSDLYAPMVAGALARLGKVTVIS [T19K]: the protein stability index was 2.21.

In the case of LTSDLYAPMVAGALARLGHVTVIS [T19H], the protein stability index is 1.94.

LTSDLYAPMVAGALARLGQVTVIS [T19Q]: the protein stability index was 1.8.

Take LTSDLYAPMVAGALKRLGTVTVIS [A15K]: the protein stability index is 3.12.

Take LTSDLYAPMVAGALGRLGTVTVIS [A15G]: the protein stability index stood at 2.69.

Regarding LTSDLYAPMVAGALTRLGTVTVIS [A15T], the protein stability index is 3.55.

In the case of LTSDLYAPMVAGALERLGTVTVIS [A15E], the protein stability index worked out at 1.39.

As for LTSDLYAPMVAGALRRLGTVTVIS [A15R], the protein stability index was 2.1.
